The numbers were not newly measured in publication PMC12564508, which cites them from elsewhere.

The data set addresses NS4B (Dengue virus) (UniProt P27909).

NS4A (from UniProt P27909): the dissociation constant (Kd) – broadly, the constant that tells how readily two partners part at equilibrium – is 50 nM.
